Data from US20060067886A1, “Gastrin receptor-avid peptide conjugates” (priority 1997, published 2006).

Columns and labels:
in vivo = details: SCID, mouse, iv, 4 uCi, total radioactivity
[1] = Biodistribution of radiometal-DOTA-BBN conjugates in CF1 normal mice; details: CF-1, mouse, in vivo, iv, total radioactivity; for tissue uptake dose at 1 h / dose excreted at 1 h: Avg % ID; for dose excreted at 1 h: Urine; for tissue uptake at 1 h: Avg % ID/gm
[2] = Blood, 1 hour, Blocking (excess BBN)
[3] = Kidney, 1 hour, Blocking (excess BBN)
[4] = L. Intestine, 1 hour, Blocking (excess BBN)
[5] = Liver, 1 hour, Blocking (excess BBN)
[6] = Lung, 1 hour, Blocking (excess BBN)
[7] = Muscle, 1 hour, Blocking (excess BBN)
[8] = Pancreas, 1 hour post-injection
[9] = Pancreas, 1 hour, Blocking (excess BBN)
[10] = S. Intestine, 1 hour, Blocking (excess BBN)
[11] = Spleen, 1 hour, Blocking (excess BBN)
[12] = Stomach, 1 hour, Blocking (excess BBN)

`CSCC[C@H](NC(=O)[C@H](CC(C)C)NC(=O)[C@H](Cc1cnc[nH]1)NC(=O)CNC(=O)[C@@H](NC(=O)[C@H](C)NC(=O)[C@H](Cc1c[nH]c2ccccc12)NC(=O)[C@H](CCC(N)=O)NC(=O)CCCCCCCNC(=O)CN1CCN(CC(=O)O)CCN(CC(=O)O)CCN(CC(=O)O)CC1)C(C)C)C(N)=O` [111In-DOTA-8-Aoc-BBN[7-14]NH2, metal not drawn] showed a tissue uptake at 1 h (in vivo; blood) of 0.35 ± 0.08 %ID/g, a tissue uptake at 4 h (in vivo; blood) of 0.08 ± 0.1 %ID/g and a tissue uptake at 24 h (in vivo; blood) of 0.02 ± 0.03 %ID/g. It also gave a tissue uptake at 1 h (in vivo; heart) of 0.15 ± 0.11 %ID/g, a tissue uptake at 24 h (in vivo; heart) of 0.08 ± 0.06 %ID/g and a tissue uptake at 1 h (in vivo; kidney) of 3.29 ± 0.56 %ID/g. The tissue uptake at 4 h (in vivo; kidney) was 1.76 ± 0.15 %ID/g, the tissue uptake at 24 h (in vivo; kidney) was 0.98 ± 0.28 %ID/g and the tissue uptake at 1 h (in vivo; large intestine) was 5.14 ± 0.42 %ID/g. It also gave a tissue uptake at 4 h (in vivo; large intestine) of 5.58 ± 1.26 %ID/g, a tissue uptake at 24 h (in vivo; large intestine) of 2.76 ± 0.49 %ID/g and a tissue uptake at 1 h (in vivo; liver) of 0.31 ± 0.04 %ID/g. The tissue uptake at 4 h (in vivo; liver) was 0.15 ± 0.09 %ID/g, the tissue uptake at 24 h (in vivo; liver) was 0.07 ± 0.02 %ID/g and the tissue uptake at 1 h (in vivo; lung) was 0.31 ± 0.09 %ID/g. For the same molecule, the tissue uptake at 4 h (in vivo; lung) was 0.06 ± 0.06 %ID/g, the tissue uptake at 24 h (in vivo; lung) was 0.05 ± 0.05 %ID/g and the tissue uptake at 1 h (in vivo; muscle) was 0.08 ± 0.05 %ID/g. It also gave a tissue uptake at 4 h (in vivo; muscle) of 0.06 ± 0.13 %ID/g, a tissue uptake at 1 h (in vivo; pancreas) of 23.4 ± 4.99 %ID/g and a tissue uptake at 4 h (in vivo; pancreas) of 17.9 ± 5 %ID/g. The tissue uptake at 24 h (in vivo; pancreas) was 5.06 ± 0.77 %ID/g, the tissue uptake at 1 h (in vivo; small intestine) was 5.15 ± 0.19 %ID/g and the tissue uptake at 24 h (in vivo; small intestine) was 0.9 ± 0.14 %ID/g. The tissue uptake at 1 h (in vivo; spleen) was 0.57 ± 0.1 %ID/g, the tissue uptake at 4 h (in vivo; spleen) was 0.48 ± 0.25 %ID/g and the tissue uptake at 24 h (in vivo; spleen) was 0.21 ± 0.07 %ID/g. The tissue uptake at 4 h (in vivo; stomach) was 0.27 ± 0.08 %ID/g, the tissue uptake at 24 h (in vivo; stomach) was 0.33 ± 0.1 %ID/g and the tissue uptake at 1 h (in vivo; tumor (Tumor 1)) was 0.91 ± 0.16 %ID/g. The tissue uptake at 4 h (in vivo; tumor (Tumor 1)) was 0.36 ± 0.13 %ID/g, the tissue uptake at 24 h (in vivo; tumor (Tumor 1)) was 0.22 ± 0.07 %ID/g and the tissue uptake at 1 h (in vivo; tumor (Tumor 2)) was 0.74 ± 0.27 %ID/g. For the same molecule, the tissue uptake at 4 h (in vivo; tumor (Tumor 2)) was 0.4 ± 0.23 %ID/g, the tissue uptake at 24 h (in vivo; tumor (Tumor 2)) was 0.24 ± 0.15 %ID/g and the tissue uptake at 1 h (in vivo; tumor) was 0.83 ± 0.23 %ID/g. For the same molecule, the dose excreted at 1 h (in vivo; urine) was 72.1 ± 3.55%, the dose excreted at 4 h (in vivo; urine) was 84.3 ± 2.09% and the dose excreted at 24 h (in vivo; urine) was 83.8 ± 1.41%. It also gave a tissue uptake dose at 1 h [1, 2] of 0.98 ± 0.23 %ID, a tissue uptake dose at 1 h ([1]; Carcass, 1 hour, Blocking (excess BBN)) of 7.42 ± 1.35 %ID and a tissue uptake dose at 1 h ([1]; Heart, 1 hour post-injection) of 0.01 %ID. The tissue uptake dose at 1 h ([1]; Kidney, 1 hour post-injection) was 1.04 ± 0.12 %ID, the tissue uptake dose at 1 h [1, 3] was 0.92 ± 0.13 %ID and the tissue uptake dose at 1 h ([1]; L. Intestine, 1 hour post-injection) was 3.02 ± 0.33 %ID. The tissue uptake dose at 1 h [1, 4] was 0.15 ± 0.05 %ID, the tissue uptake dose at 1 h [1, 5] was 0.87 ± 0.1 %ID and the tissue uptake dose at 1 h [1, 6] was 0.17 ± 0.05 %ID. The tissue uptake dose at 1 h ([1]; Muscle, 1 hour post-injection) was 0.02 ± 0.01 %ID, the tissue uptake dose at 1 h [1, 7] was 0.02 ± 0.01 %ID and the tissue uptake dose at 1 h [1, 8] was 10.8 ± 0.78 %ID. The tissue uptake dose at 1 h [1, 9] was 0.19 ± 0.03 %ID, the tissue uptake dose at 1 h ([1]; S. Intestine, 1 hour post-injection) was 6.58 ± 1.1 %ID and the tissue uptake dose at 1 h [1, 10] was 1.65 ± 0.19 %ID. For the same molecule, the tissue uptake dose at 1 h ([1]; Spleen, 1 hour post-injection) was 0.17 ± 0.04 %ID, the tissue uptake dose at 1 h [1, 11] was 0.02 ± 0.03 %ID and the tissue uptake dose at 1 h ([1]; Stomach, 1 hour post-injection) was 0.5 ± 0.06 %ID. It also gave a tissue uptake dose at 1 h [1, 12] of 0.16 ± 0.12 %ID, a dose excreted at 1 h ([1]; 1 hour post-injection) of 71.6 ± 1.82% and a dose excreted at 1 h ([1]; 1 hour, Blocking (excess BBN)) of 88.2 ± 1.79%. The tissue uptake at 1 h [1, 2] was 0.49 ± 0.15 %ID/g, the tissue uptake at 1 h ([1]; Heart, 1 hour, Blocking (excess BBN)) was 0.16 ± 0.06 %ID/g and the tissue uptake at 1 h [1, 3] was 2.19 ± 0.47 %ID/g. For the same molecule, the tissue uptake at 1 h [1, 4] was 0.16 ± 0.06 %ID/g, the tissue uptake at 1 h [1, 5] was 0.54 ± 0.13 %ID/g and the tissue uptake at 1 h [1, 6] was 0.74 ± 0.17 %ID/g. It also gave a tissue uptake at 1 h ([1]; Muscle, 1 hour post-injection) of 0.12 ± 0.05 %ID/g, a tissue uptake at 1 h [1, 7] of 0.11 ± 0.07 %ID/g and a tissue uptake at 1 h [1, 8] of 27 ± 3.97 %ID/g. It also gave a tissue uptake at 1 h [1, 9] of 0.43 ± 0.1 %ID/g, a tissue uptake at 1 h [1, 10] of 0.95 ± 0.18 %ID/g and a tissue uptake at 1 h [1, 11] of 0.15 ± 0.16 %ID/g. It also gave a tissue uptake at 1 h [1, 12] of 0.32 ± 0.34 %ID/g.
